T1: human CD137L peptide 01 (human, biotinylated (position not given))
T1 construct: Synthesized as biotinylated peptide
T1 peptide: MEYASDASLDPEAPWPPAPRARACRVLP

T2: human CD137L peptide 02 (human, biotinylated (position not given))
T2 construct: Synthesized as biotinylated peptide; identical to peptide 01 except that it lacks the C-terminal 5 residues
T2 peptide: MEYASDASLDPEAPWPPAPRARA


Columns and labels:
[1] = target: T1, human CD137L peptide 01; experiment: ELISA, IgG on CD137L peptide 01
[2] = target: T2, human CD137L peptide 02; experiment: ELISA, IgG on CD137L peptide 02
[3] = target: T3, full length human CD137L (human, UniProt P41273 1-254); experiment: immunofluorescence microscopy on fixed and permeabilized CHO-S-CD137L cells
T3 construct: also called CD137 ligand; human CD137 ligand
Experimental: FIGS. 3A-3C show immunofluorescence staining of TY23557, TY23561, the Reference-1 and isotype control antibodies at the indicated concentrations. The positive control CHO-S-CD137L cell line and the negative control CHO-S cells were washed, fixed and permabilized in a similar fashion as in immunohistochemistry (IHC), followed by analysis through fluorescence microscopy. (FIG. 3A) CHO-S-CD137L cells were stained with TY23557 or TY23561 (0.4 nM or 40 nM). (FIG. 3B) CHO-S-CD137L cells were stained with Reference-1 (6.66 nM) or negative isotype control (40 nM). (FIG. 3C) CHO-S cells were stained with TY23557 (40 nM), TY23561 (40 nM), negative isotype control (40 nM) or Reference-1 (6.66 nM).
The specificity of the antibodies were further confirmed with immunofluorescence analysis. To that end, CHO-S and CHO-S-CD137L cells were cultured on cover slides overnight. Cells were washed with DPBS followed by fixing and permeabilizing with 2% (v/v) paraformaldehyde and 0.1% Triton X 100. Then the cells were incubated with TY23557, TY23561, negative isotype control and Reference-1 (positive control) for one hour at room temperature. After washing by 0.05% PBST, PE Goat anti-mouse IgG Fc were added and staining for one hour at room temperature. The samples were analyzed with fluorescent microscopy.

| Binder | EC50 [1] [nM] | EC50 [2] [nM] | binding result [3] |
| --- | --- | --- | --- |
| TY23557 (antibody, V domains shown, Tested as IgG with Fc from mouse IgG2a, expressed in mammalian cells) VH: EVQLVESGGGLVQPGGSLRLSCAASGFTFTGYGIHWVRQAPGKGLEWVSAISGSGGSTYYADSVKGRFTISRDNSKNTLYLQLNSLRAEDTAVYYCARGAYYGGSYYFDYWGQGTLVTVSS VL: DIQLTQSPSSLSASVGDRVTITCRASESITSSYLAWYQQKPGKAPKLLIYDASSLESGVPSRFSGSGSGTDFTLTISSLQPEDFATYYCFQGSHYPPTFGQGTKVEIKR | 10.1 | 6.77 | binds |
| TY23555 (antibody, V domains shown, Tested as IgG with Fc from mouse IgG2a, expressed in mammalian cells) VH: EVQLVESGGGLVQPGGSLRLSCAASGYSISSGHYWAWIRQAPGKGLEWVSVISGSGGSTYYADSVKGRFTISRDNSKNTLYLQLNSLRAEDTAVYYCARYRSGAFDYWGQGTLVTVSS VL: DIQLTQSPSSLSASVGDRVTITCRASQSISRWLAWYQQKPGKAPKLLIYAASSLQSGVPSRFSGSGSGTDFTLTISSLQPEDFATYYCQQAYSIWTFGQGTKVEIKR | 28.5 | 12.3 | – |
| TY23556 (antibody, V domains shown, Tested as IgG with Fc from mouse IgG2a, expressed in mammalian cells) VH: EVQLVESGGGLVQPGGSLRLSCAASGYSITSGHYWGWIRQAPGKGLEWIGEIYHSGSTYYSPSLKSRVTISRDNSKNTLYLQLNSLRAEDTAVYYCTRGRYGLDYWGQGTLVTVSS VL: DIQLTQSPSSLSASVGDRVTITCSASSSVGYVQWYQQKPGKAPKLLIYDASNRATGIPSRFSGSGSGTDFTLTISSLQPEDFATYYCQQYGSAPITFGQGTKVEIKR | 0.66 | 0.48 | – |
| TY23561 (antibody, V domains shown, Tested as IgG with Fc from mouse IgG2a, expressed in mammalian cells) VH: EVQLVESGGGLVQPGGSLRLSCAASGFSLSTSGVGVSWIRQAPGKGLEWLALIDWAGDKYYSPSLKSRLTISRDNSKNTLYLQLNSLRAEDTAVYYCARYGYSSYALDYWGQGTLVTVSS VL: DIQLTQSPSSLSASVGDRVTITCRASQSVRGSYLAWYQQKPGKAPKLLIYAASTLQSGVPSRFSGSGSGTDFTLTISSLQPEDFATYYCQQYSSLWTFGQGTKVEIKR | 166 | 50 | – |

More lines, in order of falling EC50 [1], values ahead:

| EC50 [1] [nM] | EC50 [2] [nM] | binding result [3] | Binder |
| --- | --- | --- | --- |
| 3.84 | 1.51 | – | TY23558 (antibody, V domains shown, Tested as IgG with Fc from mouse IgG2a, expressed in mammalian cells; also called TV23558) VH: EVQLVESGGGLVQPGGSLRLSCAASGYSISSGHYWSWIRQAPGKGLEWIGEIYHSGSTYYSPSLKSRVTISRDNSKNTLYLQLNSLRAEDTAVYYCAREGSDSYGGPDPFDIWGQGTLVTVSS VL: DIQLTQSPSSLSASVGDRVTITCRARSTVSFPYLHWYQQKPGKAPKLLIYDASNLETGVPSRFSGSGSGTDFTLTISSLQPEDFATYYCQQSLEDPFTFGQGTKVEIKR |
| 3.13 | 1.59 | – | TY23554 (antibody, V domains shown, Tested as IgG with Fc from mouse IgG2a, expressed in mammalian cells) VH: EVQLVESGGGLVQPGGSLRLSCAASGYSITSGYYWAWIRQAPGKGLEWIGIINPNRGSTKYAQKFQGRVTISRDNSKNTLYLQLNSLRAEDTAVYYCARDGWALSGGYYYYYGLDVWGQGTLVTVSS VL: DIQLTQSPSSLSASVGDRVTITCRASQDISSDLAWYQQKPGKAPKLLIYDASNLETGVPSRFSGSGSGTDFTLTISSLQPEDFATYYCQQYDAWPSTFGQGTKVEIKR |
| 2.04 | 0.74 | – | TY23562 (antibody, V domains shown, Tested as IgG with Fc from mouse IgG2a, expressed in mammalian cells) VH: EVQLVESGGGLVQPGGSLRLSCAASGYSISSGYHWDWIRQAPGKGLEWIGRINPNRGSTKYAQKFQGRVTISRDNSKNTLYLQLNSLRAEDTAVYYCAREFGAYWGQGTLVTVSS VL: DIQLTQSPSSLSASVGDRVTITCRASQSVDFVGKSFLDWYQQKPGKAPKLLIYDASNLETGVPSRFSGSGSGTDFTLTISSLQPEDFATYYCQQRASWPLTFGQGTKVEIKR |
| 1.03 | 0.65 | – | TY23559 (antibody, V domains shown, Tested as IgG with Fc from mouse IgG2a, expressed in mammalian cells) VH: EVQLVESGGGLVQPGGSLRLSCAASGYSISSGHYWAWIRQAPGKGLEWIGEIYHSGSTYYSPSLKSRVTISRDNSKNTLYLQLNSLRAEDTAVYYCTRGRYGLDYWGQGTLVTVSS VL: DIQLTQSPSSLSASVGDRVTITCSASSSVSYVQWYQQKPGKAPKLLIYDASNRATGIPSRFSGSGSGTDFTLTISSLQPEDFATYYCQQYSTNPLTFGQGTKVEIKR |

Source: patent publication US20220089757A1 (ADAGENE PTE, published 2022)
